T1: MPER peptide PDT-081 (HIV-1, biotin at the C-terminus)
T1 chain: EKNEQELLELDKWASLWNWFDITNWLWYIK

B1: PGZL1.H4K3 IgG (antibody, V domains shown)
VH: KVQLVQSGAELKKPWSSVRVSCKASGGSFSSYAFNWVRQAPGQRLEWLGGIVPLVSSTNYAQRFRGRVTISADRSTSTVYLEMTGLTSADTAVYFCAREGEGWFGRPLRAFEFWGQGTLVTVST
VL: EIVLTQSPGTFALSPGERATLSCRASQSVSGGALAWYQQKAGQAPRLLIYGTSGRATGVPGRFSGSGSETDFSLTISRLEPEDFAVYYCQQYGTSQSTFGQGTRLETR
B2: H4K3_5M IgG (antibody, V domains shown)
VH: KVQLVQSGAELKKPWSSVRVSCKASGGEPESYAFNWVRQAPGQRLEWLGGIVPLVSSTNYAQRFRGRVTISADPETSTVYLEMTGLTSADTAVYFCAREGEGWFGRPLRAFEFWGQGTLVTVST
VL: EIVLTQSPGTFALSPGERATLSCRASQSVSGGALAWYQQKAGQAPRLLIYDTSGRATGVPGRFSGSGSETDFSLTISRLEPEDFAVYYCQQYGTSQSTFGQGTRLETR
B3: H4K3_SFS28EPE IgG (antibody, V domains shown)
VH: KVQLVQSGAELKKPWSSVRVSCKASGGEPESYAFNWVRQAPGQRLEWLGGIVPLVSSTNYAQRFRGRVTISADRSTSTVYLEMTGLTSADTAVYFCAREGEGWFGRPLRAFEFWGQGTLVTVST
VL: EIVLTQSPGTFALSPGERATLSCRASQSVSGGALAWYQQKAGQAPRLLIYDTSGRATGVPGRFSGSGSETDFSLTISRLEPEDFAVYYCQQYGTSQSTFGQGTRLETR
B4: H4K3_RS73PE IgG (antibody, V domains shown)
VH: KVQLVQSGAELKKPWSSVRVSCKASGGSFSSYAFNWVRQAPGQRLEWLGGIVPLVSSTNYAQRFRGRVTISADPETSTVYLEMTGLTSADTAVYFCAREGEGWFGRPLRAFEFWGQGTLVTVST
VL: EIVLTQSPGTFALSPGERATLSCRASQSVSGGALAWYQQKAGQAPRLLIYDTSGRATGVPGRFSGSGSETDFSLTISRLEPEDFAVYYCQQYGTSQSTFGQGTRLETR
B5: H4K3_5M Fab (Fab, V domains shown)
VH: KVQLVQSGAELKKPWSSVRVSCKASGGEPESYAFNWVRQAPGQRLEWLGGIVPLVSSTNYAQRFRGRVTISADPETSTVYLEMTGLTSADTAVYFCAREGEGWFGRPLRAFEFWGQGTLVTVST
VL: EIVLTQSPGTFALSPGERATLSCRASQSVSGGALAWYQQKAGQAPRLLIYDTSGRATGVPGRFSGSGSETDFSLTISRLEPEDFAVYYCQQYGTSQSTFGQGTRLETR
B6: H4K3_SFS28EPE Fab (Fab, V domains shown)
VH: KVQLVQSGAELKKPWSSVRVSCKASGGEPESYAFNWVRQAPGQRLEWLGGIVPLVSSTNYAQRFRGRVTISADRSTSTVYLEMTGLTSADTAVYFCAREGEGWFGRPLRAFEFWGQGTLVTVST
VL: EIVLTQSPGTFALSPGERATLSCRASQSVSGGALAWYQQKAGQAPRLLIYDTSGRATGVPGRFSGSGSETDFSLTISRLEPEDFAVYYCQQYGTSQSTFGQGTRLETR
B7: H4K3_RS73PE Fab (Fab, V domains shown)
VH: KVQLVQSGAELKKPWSSVRVSCKASGGSFSSYAFNWVRQAPGQRLEWLGGIVPLVSSTNYAQRFRGRVTISADPETSTVYLEMTGLTSADTAVYFCAREGEGWFGRPLRAFEFWGQGTLVTVST
VL: EIVLTQSPGTFALSPGERATLSCRASQSVSGGALAWYQQKAGQAPRLLIYDTSGRATGVPGRFSGSGSETDFSLTISRLEPEDFAVYYCQQYGTSQSTFGQGTRLETR

In the first assay the target is T1, MPER peptide PDT-081. Briefly: ELISA.
With B1, a half-maximal effect (EC50) was put at 0.039 mg/L.

Turning to B2, the response was half-maximal at 0.083 mg/L (EC50).

In turn, B3 came in with an EC50 of 0.076 mg/L.

Molecule B4 yielded a concentration giving a half-maximal response (EC50) of 0.09 mg/L.

A further assay addresses T1, MPER peptide PDT-081. As to the kind of experiment: BLI. (BLI is a label-free optical method that tracks binding on a fibre tip over time.)
On to B5, for which the off-rate (koff) was 0.00067 s⁻¹.

Consider B6, for which the dissociation rate constant (koff) stood at 0.00054 s⁻¹.

Take B7: the koff worked out at 0.00051 s⁻¹.

What is called EC50 is the concentration giving half of the maximal effect. Lower therefore signals higher potency in that assay. For orientation: koff means a measure of how fast the partners let go of each other. Low values mean slow dissociation, high ones fast dissociation.

The record behind these values is publication PMC6879610 (2019).
